Data as given in patent US20120308571A1 (FUJIFILM RI PHARMA, published 2012).

What was measured:
human podoplanin [1] = biological target: T1, human podoplanin (human, UniProt Q86YL7 23-162); experiment: flow cytometry on H2052 mesothelioma cells, 10 ug/ml antibody
T1 construct: whole, on cells; also called Aggrus
T1 sequence (looked up): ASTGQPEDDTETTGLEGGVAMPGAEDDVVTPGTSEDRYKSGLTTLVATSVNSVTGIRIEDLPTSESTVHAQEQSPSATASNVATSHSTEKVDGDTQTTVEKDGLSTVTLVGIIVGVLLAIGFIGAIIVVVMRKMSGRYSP
Experimental: Meanwhile, the expression of podoplanin in the mesothelioma cells was confirmed by flow cytometry. Specifically, the cells were reacted with NZ-1 antibodies (10 μg/ml) at 4° C. for 30 minutes, and further reacted with anti-rat IgG-FITC antibodies at 4° C. for 30 minutes. Fluorescence intensity was measured by FACSCalibur (BD).

human podoplanin [2] = biological target: T1, human podoplanin; experiment: flow cytometry on H226 and LN319 cells, 10 ug/ml antibody
Experimental: First, NZ-1 antibodies, mouse chimera-type NZ-1 antibodies, and human chimera-type NZ-1 antibodies (10 μg/ml) were reacted at 4° C. for 30 minutes with human malignant mesothelioma cells (H226) and human glioma cells (LN319) which expressed human podoplanin. In addition, anti-rat IgG-FITC antibodies, anti-mouse IgG-FITC antibodies, and anti-human IgG-FITC antibodies were respectively reacted at 4° C. for 30 minutes. The fluorescence intensity was measured by FACSCalibur (BD).

B1: rat NZ-1 antibody (antibody)
heavy: EVQLVESGGGLVQPGRSLKLSCAASGFTFSNYGMAWVRQTPTKGLEWIASISAGGDKTYYGDSVKGRFSISRDNAKTTHYLQMDSLRSEDTATYYCAKTSRVYFDYWGQGVMVTVSSAETTAPSVYPLAPGTALKSNSMVTLGCLVKGYFPEPVTVTWNSGALSSGVHTFPAVLQSGLYTLTSSVTVPSSTWSSQAVTCNVAHPASSTKVDKKIVPRECNPCGCTGSEVSSVFIFPPKTKDVLTITLTPKVTCVVVDISQNDPEVRFSWFIDDVEVHTAQTHAPEKQSNSTLRSVSELPIVHRDWLNGKTFKCKVNSGAFPAPIEKSISKPEGTPRGPQVYTMAPPKEEMTQSQVSITCMVKGFYPPDIYTEWKMNGQPQENYKNTPPTMDTDGSYFLYSKLNVKKETWQQGNTFTCSVLHEGLHNHHTEKSLSHSPGK
light: QFVLTQPNSVSTNLGSTVKLSCKRSTGNIGSNYVNWYQQHEGRSPTTMIYRDDKRPDGVPDRFSGSIDRSSNSALLTINNVQTEDEADYFCHSYSSGIVFGGGTKLTVLGQPKSTPTLTVFPPSTEELQGNKATLVCLISDFYPSDVEVAWKANGAPISQGVDTANPTKQGNKYIASSFLRLTAEQWRSRNSFTCQVTHEGNTVEKSLSPAECV
notes: Rat monoclonal antibody from the NZ-1 hybridoma; also called rat monoclonal antibody NZ-1
Does B1 bind (human podoplanin [1])?
Result: binds

B2: mouse chimera-type NZ-1 antibody (antibody)
heavy: EVQLVESGGGLVQPGRSLKLSCAASGFTFSNYGMAWVRQTPTKGLEWIASISAGGDKTYYGDSVKGRFSISRDNAKTTHYLQMDSLRSEDTATYYCAKTSRVYFDYWGQGVMVTVSSAETTAPSVYPLAPGTALKSNSMVTLGCLVKGYFPEPVTVTWNSGALSSGVHTFPAVLQSGLYTLTSSVTVPSSTWSSQAVTCNVAHPASSTKVDKKIVPRRSPPLKECPPCAAPDLLGGPSVFIFPPKIKDVLMISLSPMVTCVVVDVSEDDPDVQISWFVNNVEVHTAQTQTHREDYNSTLRVVSALPIQHQDWMSGKEFKCKVNNRALPSPIEKTISKPRGPVRAPQVYVLPPPAEEMTKKEFSLTCMITGFLPAEIAVDWTSNGRTEQNYKNTATVLDSDGSYFMYSKLRVQKSTWERGSLFACSVVHEGLHNHLTTKTISRSLGK
light: QFVLTQPNSVSTNLGSTVKLSCKRSTGNIGSNYVNWYQQHEGRSPTTMIYRDDKRPDGVPDRFSGSIDRSSNSALLTINNVQTEDEADYFCHSYSSGIVFGGGTKLTVLGQPKSTPTLTVFPPSTEELQGNKATLVCLISDFYPSDVEVAWKANGAPISQGVDTANPTKQGNKYIASSFLRLTAEQWRSRNSFTCQVTHEGNTVEKSLSPAECV
notes: Heavy chain is the VH and CH1 of rat NZ-1 joined to the hinge, CH2 and CH3 of mouse IgG2a; Light chain is the rat NZ-1 L chain; also called mouse chimeric antibody; mouse chimera-type antibody
Does B2 bind (human podoplanin [2])?
Result: binds

B3: human chimera-type NZ-1 antibody (antibody)
heavy: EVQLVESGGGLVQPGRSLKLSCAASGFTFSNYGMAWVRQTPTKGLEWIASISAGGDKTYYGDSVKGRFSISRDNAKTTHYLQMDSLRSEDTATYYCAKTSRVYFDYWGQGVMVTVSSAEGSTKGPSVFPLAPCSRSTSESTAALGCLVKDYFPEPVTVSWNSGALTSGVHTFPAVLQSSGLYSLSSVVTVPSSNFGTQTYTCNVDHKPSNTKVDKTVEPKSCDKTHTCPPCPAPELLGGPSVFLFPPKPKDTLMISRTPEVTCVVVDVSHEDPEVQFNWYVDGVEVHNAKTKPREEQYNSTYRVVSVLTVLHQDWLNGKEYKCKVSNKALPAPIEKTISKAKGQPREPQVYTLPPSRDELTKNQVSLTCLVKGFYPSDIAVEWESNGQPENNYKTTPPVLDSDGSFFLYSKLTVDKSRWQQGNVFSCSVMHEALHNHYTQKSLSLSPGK
light: QFVLTQPNSVSTNLGSTVKLSCKRSTGNIGSNYVNWYQQHEGRSPTTMIYRDDKRPDGVPDRFSGSIDRSSNSALLTINNVQTEDEADYFCHSYSSGIVFGGGTKLTVLGQPKGIRTVAAPSVFIFPPSDEQLKSGTASVVCLLNNFYPREAKVQWKVDNALQSGNSQESVTEQDSKDSTYSLSSTLTLSKADYEKHKVYACEVTHQGLSSPVTKSFNRGEC
notes: Heavy chain is the VH of rat NZ-1 joined to the CH1, hinge, CH2 and CH3 of human IgG1; also called human chimeric antibody; human chimera-type antibody
Does B3 bind (human podoplanin [2])?
Result: binds
